Literature values, collected in patent US20140303060A1, “PROCESS FOR DEGRADING A BIOFILM ON SURFACES OF OBJECTS” (Fraunhofer Gesellschaft Zur Foerderung der angwandten …, priority 2011, published 2014).

Substance: lysostaphin: zinc-dependent enzyme that cleaves the pentaglycine cross bridges of the bacterial cell wall
- effect of repeated freezing and thawing on activity: reduction of activity
